The results in this text go back to paper PMC8933513 (2022).

Assay in all cases: SPR
(SPR reads the build-up and loss of mass on a sensor chip optically.)

The target of test [1] is hAPN ectodomain H789A mutant (human, UniProt P15144 62-963, H789A).
The target of test [2] is T1, pAPN ectodomain W424A mutant (pig, UniProt P15145 58-961, W424A).
T1 sequence: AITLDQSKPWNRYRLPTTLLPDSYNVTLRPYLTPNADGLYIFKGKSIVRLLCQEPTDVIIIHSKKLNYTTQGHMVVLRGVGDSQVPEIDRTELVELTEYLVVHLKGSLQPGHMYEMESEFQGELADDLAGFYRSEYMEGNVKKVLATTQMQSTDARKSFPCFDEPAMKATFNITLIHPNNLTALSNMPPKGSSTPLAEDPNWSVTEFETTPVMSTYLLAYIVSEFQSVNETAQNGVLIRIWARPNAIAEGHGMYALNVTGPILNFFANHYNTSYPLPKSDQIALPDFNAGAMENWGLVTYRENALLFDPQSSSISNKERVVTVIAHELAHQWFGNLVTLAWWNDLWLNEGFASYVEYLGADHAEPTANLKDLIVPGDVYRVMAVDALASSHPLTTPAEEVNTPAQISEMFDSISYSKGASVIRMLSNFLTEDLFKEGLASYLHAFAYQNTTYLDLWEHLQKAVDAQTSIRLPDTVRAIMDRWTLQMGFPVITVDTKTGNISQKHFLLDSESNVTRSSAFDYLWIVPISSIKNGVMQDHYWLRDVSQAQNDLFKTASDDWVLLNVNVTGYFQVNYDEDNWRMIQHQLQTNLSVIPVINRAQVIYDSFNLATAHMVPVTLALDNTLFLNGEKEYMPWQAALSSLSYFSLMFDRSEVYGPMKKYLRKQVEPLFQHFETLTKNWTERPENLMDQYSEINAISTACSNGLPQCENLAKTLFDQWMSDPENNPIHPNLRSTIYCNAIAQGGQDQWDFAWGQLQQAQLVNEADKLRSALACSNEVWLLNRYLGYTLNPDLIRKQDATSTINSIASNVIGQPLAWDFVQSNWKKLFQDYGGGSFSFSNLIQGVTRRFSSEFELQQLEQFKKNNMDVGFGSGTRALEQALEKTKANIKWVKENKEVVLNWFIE

Test [3] has as its target hAPN ectodomain E742A mutant (human, UniProt P15144 62-963, E742A).
Test [4] has as its target T2, porcine aminopeptidase N (pAPN) ectodomain, residues 58-961, wild type (pig, UniProt P15145 58-961).
T2 chain: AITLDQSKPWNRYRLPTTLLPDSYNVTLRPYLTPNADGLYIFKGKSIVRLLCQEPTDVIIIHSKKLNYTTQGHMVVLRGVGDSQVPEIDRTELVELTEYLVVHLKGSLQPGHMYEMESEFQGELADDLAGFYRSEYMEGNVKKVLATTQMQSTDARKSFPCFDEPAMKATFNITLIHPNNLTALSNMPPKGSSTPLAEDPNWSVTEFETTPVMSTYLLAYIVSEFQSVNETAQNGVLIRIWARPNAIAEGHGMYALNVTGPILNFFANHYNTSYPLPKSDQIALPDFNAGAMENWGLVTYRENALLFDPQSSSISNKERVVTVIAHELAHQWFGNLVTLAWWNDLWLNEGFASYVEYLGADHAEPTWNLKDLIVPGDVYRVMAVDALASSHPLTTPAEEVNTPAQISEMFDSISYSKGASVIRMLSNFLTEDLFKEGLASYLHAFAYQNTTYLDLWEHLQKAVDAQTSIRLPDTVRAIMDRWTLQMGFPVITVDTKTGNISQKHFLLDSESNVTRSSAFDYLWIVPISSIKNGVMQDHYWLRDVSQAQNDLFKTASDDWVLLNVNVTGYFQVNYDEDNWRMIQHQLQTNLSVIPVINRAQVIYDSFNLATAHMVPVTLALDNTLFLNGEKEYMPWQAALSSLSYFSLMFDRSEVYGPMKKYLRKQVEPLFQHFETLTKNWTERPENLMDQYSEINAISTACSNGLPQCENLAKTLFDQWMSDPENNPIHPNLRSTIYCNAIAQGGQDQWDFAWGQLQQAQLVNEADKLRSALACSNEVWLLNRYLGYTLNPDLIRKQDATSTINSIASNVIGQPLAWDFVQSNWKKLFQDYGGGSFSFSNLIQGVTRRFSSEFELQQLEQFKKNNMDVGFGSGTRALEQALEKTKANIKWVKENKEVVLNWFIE

Test [5] has as its target T3, pAPN ectodomain K374A mutant (pig, UniProt P15145 58-961, K374A).
T3 sequence: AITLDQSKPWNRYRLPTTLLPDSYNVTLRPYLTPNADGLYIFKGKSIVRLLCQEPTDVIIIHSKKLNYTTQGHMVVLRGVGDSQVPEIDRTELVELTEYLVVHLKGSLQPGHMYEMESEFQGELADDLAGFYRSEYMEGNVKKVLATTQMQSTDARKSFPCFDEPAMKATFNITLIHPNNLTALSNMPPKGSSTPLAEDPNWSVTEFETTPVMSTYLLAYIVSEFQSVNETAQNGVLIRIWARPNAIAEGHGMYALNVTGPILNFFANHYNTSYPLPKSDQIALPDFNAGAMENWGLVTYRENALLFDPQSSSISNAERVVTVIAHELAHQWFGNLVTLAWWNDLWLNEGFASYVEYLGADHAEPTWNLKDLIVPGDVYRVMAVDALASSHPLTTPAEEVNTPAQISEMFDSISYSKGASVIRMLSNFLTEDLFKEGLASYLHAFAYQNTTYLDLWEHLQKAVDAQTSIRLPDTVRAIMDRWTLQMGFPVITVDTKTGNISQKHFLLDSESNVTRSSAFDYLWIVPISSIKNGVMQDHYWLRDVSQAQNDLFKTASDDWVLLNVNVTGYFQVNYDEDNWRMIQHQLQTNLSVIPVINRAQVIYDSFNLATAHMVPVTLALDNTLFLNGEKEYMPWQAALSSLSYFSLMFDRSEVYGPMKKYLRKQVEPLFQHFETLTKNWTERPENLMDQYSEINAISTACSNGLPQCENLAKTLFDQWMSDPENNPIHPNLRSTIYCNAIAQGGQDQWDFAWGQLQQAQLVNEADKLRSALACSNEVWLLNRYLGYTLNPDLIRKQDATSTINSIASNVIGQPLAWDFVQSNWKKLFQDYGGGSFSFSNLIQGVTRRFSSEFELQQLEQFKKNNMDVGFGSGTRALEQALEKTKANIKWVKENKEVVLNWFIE

B1: PDCoV spike (S) protein receptor binding domain (RBD), residues 300-419, wild type (domain or fragment)
chain: PKLPELEVVQLNISAHMDFGEARLDSVTINGNTSYCVTKPYFRLETNFMCTGCTMNLRTDTCSFDLSAVNNGMSFSQFCLSTESGACEMKIIVTYVWNYLLRQRLYVTAVEGQTHTGTTS
As a reminder, the Kd is the equilibrium constant for the complex coming apart. A low value points to higher affinity. On to B1, for which the dissociation constant (Kd) in test [1] is 6.25 µM; in test [2] it was 116 µM; in test [3], 13.7 µM; in test [4], 44.2 µM; in test [5] it was more than 1000 µM.
